{"source": "paper PMC10162664", "about": "“Microbial β-glucuronidases drive human periodontal disease etiology” (Science Advances, 2023)", "key": {"[1]": {"target": "T1, TlGUS L1 (Treponema lecithinolyticum β-glucuronidase) (Treponema lecithinolyticum, UniProt A0AA82WPE8)", "T1 construct": "recombinant, N-terminal (His)6 tag retained", "test": "[…] Å crystal structure", "assay_type": "binding"}, "[2]": {"target": "T1, TlGUS L1 (Treponema lecithinolyticum β-glucuronidase)", "test": "[…] Å crystal structure (as UNC4917-GlcA conjugate formed with PNPG); 4-MUG hydrolysis IC50", "assay_type": "biochemical"}, "[3]": {"target": "T1, TlGUS L1 (Treponema lecithinolyticum β-glucuronidase)", "test": "[…] Å crystal structure (as ciprofloxacin-GlcA conjugate formed with PNPG); IC50", "assay_type": "biochemical"}, "[4]": {"target": "Tannerella forsythia GUS L2 (loop 2 β-glucuronidase) (Tannerella forsythia)", "test": "SEC-MALS; Superdex 200; protein at 2 mg/ml in 20 mM Hepes (pH 7.4), 300 mM NaCl; 50 μl injected, 0.5 ml/min"}, "[5]": {"target": "Tannerella forsythia GUS L2 (loop 2 β-glucuronidase) (Tannerella forsythia)", "test": "crystal structure; hanging drop vapor diffusion at room temperature; quaternary structure seen in the crystal"}, "[6]": {"target": "Tannerella forsythia GUS mL1 (mini-loop 1 β-glucuronidase) (Tannerella forsythia)", "test": "SEC-MALS; Superdex 200; protein at 2 mg/ml in 20 mM Hepes (pH 7.4), 300 mM NaCl; 50 μl injected, 0.5 ml/min"}, "[7]": {"target": "Tannerella forsythia GUS mL1 (mini-loop 1 β-glucuronidase) (Tannerella forsythia)", "test": "crystal structure; hanging drop vapor diffusion at room temperature; quaternary structure seen in the crystal"}, "[8]": {"test_system": "Cc1cc(=O)oc2cc(O[C@@H]3O[C@H](C(=O)O)[C@@H](O)[C@H](O)[C@H]3O)ccc12", "test": "purified protein", "details": "pH 5.0"}, "[9]": {"target": "Treponema lecithinolyticum GUS L1 (loop 1 β-glucuronidase) (Treponema lecithinolyticum)", "test": "SEC-MALS; Superdex 200; protein at 2 mg/ml in 20 mM Hepes (pH 7.4), 300 mM NaCl; 50 μl injected, 0.5 ml/min"}, "[10]": {"target": "Treponema lecithinolyticum GUS L1 (loop 1 β-glucuronidase) (Treponema lecithinolyticum)", "test": "crystal structure; hanging drop vapor diffusion at room temperature; quaternary structure seen in the crystal"}, "purified protein": {"substrate": "Cc1cc(=O)oc2cc(O[C@@H]3O[C@H](C(=O)O)[C@@H](O)[C@H](O)[C@H]3O)ccc12", "test": "purified protein", "details": "pH 5.0", "remark": "listed apart in the source"}}}
{"molecule": "CNc1ccc2c(n1)sc1c(N3CCN([C@@H]4O[C@H](C(=O)O)[C@@H](O)[C@H](O)[C@H]4O)CC3)nc(NC)nc12", "note": "[UNC4917-GlcA, UNC4917-GlcA conjugate]", "values": [{"measurement": "1.75 Å crystal structure", "setting": "[1]", "result": "The UNC4917-GlcA conjugate is located within the active site"}]}
{"molecule": "CNc1ccc2c(n1)sc1c(N3CCNCC3)nc(NC)nc12", "note": "[UNC4917]", "values": [{"measurement": "IC50", "setting": "[2]", "result": 2.5, "unit": "µM"}]}
{"molecule": "O=C(O)c1cn(C2CC2)c2cc(N3CCNCC3)c(F)cc2c1=O", "note": "[ciprofloxacin]", "values": [{"measurement": "IC50", "setting": "[3]", "result": 18.3, "unit": "µM"}]}
{"molecule": "Tannerella forsythia GUS L2 (loop 2 β-glucuronidase) (enzyme)", "values": [{"measurement": "stoichiometry N", "setting": "[4]", "result": 2}, {"measurement": "stoichiometry N", "setting": "[5]", "result": 2}]}
{"molecule": "Tannerella forsythia GUS mL1 (mini-loop 1 β-glucuronidase) (enzyme)", "values": [{"measurement": "stoichiometry N", "setting": "[6]", "result": 4}, {"measurement": "stoichiometry N", "setting": "[7]", "result": 4}]}
{"molecule": "TlGUS L1 (Treponema lecithinolyticum β-glucuronidase) (Treponema lecithinolyticum)", "values": [{"measurement": "Km", "setting": "[8]", "result": "6.8 ± 1", "unit": "µM"}, {"measurement": "kcat", "setting": "[8]", "result": "19 ± 1", "unit": "s⁻¹"}, {"measurement": "kcat/Km", "setting": "[8]", "result": "2.8e+06", "unit": "M⁻¹ s⁻¹"}]}
{"molecule": "Treponema lecithinolyticum GUS L1 (loop 1 β-glucuronidase) (enzyme)", "values": [{"measurement": "stoichiometry N", "setting": "[9]", "result": 4}, {"measurement": "stoichiometry N", "setting": "[10]", "result": 4}]}
{"molecule": "human GUS (β-glucuronidase) (Homo sapiens) (protein) LQGGMLYPQESPSRECKELDGLWSFRADFSDNRRRGFEEQWYRRPLWESGPTVDMPVPSSFNDISQDWRLRHFVGWVWYEREVILPERWTQDLRTRVVLRIGSAHSYAIVWVNGVDTLEHEGGYLPFEADISNLVQVGPLPSRLRITIAINNTLTPTTLPPGTIQYLTDTSKYPKGYFVQNTYFDFFNYAGLQRSVLLYTTPTTYIDDITVTTSVEQDSGLVNYQISVKGSNLFKLEVRLLDAENKVVANGTGTQGQLKVPGVSLWWPYLMHERPAYLYSLEVQLTAQTSLGPVSDFYTLPVGIRTVAVTKSQFLINGKPFYFHGVNKHEDADIRGKGFDWPLLVKDFNLLRWLGANAFRTSHYPYAEEVMQMCDRYGIVVIDECPGVGLALPQFFNNVSLHHHMQVMEEVVRRDKNHPAVVMWSVANEPASHLESAGYYLKMVIAHTKSLDPSRPVTFVSNSNYAADKGAPYVDVICLNSYYSWYHDYGHLELIQLQLATQFENWYKKYQKPIIQSEYGAETIAGFHQDPPLMFTEEYQKSLLEQYHLGLDQKRRKYVVGELIWNFADFMTEQSPTRVLGNKKGIFTRQRQPKSAAFLLRERYWKIANETRYPHSVAKSQCLENSLFT", "values": [{"measurement": "Km", "setting": "purified protein", "result": "84 ± 7", "unit": "µM"}, {"measurement": "kcat", "setting": "purified protein", "result": 2.2, "unit": "s⁻¹"}, {"measurement": "kcat/Km", "setting": "purified protein", "result": 26000, "unit": "M⁻¹ s⁻¹"}]}
